Source: PMC8703375, “Polar Interactions at the Dimer–Dimer Interface of Methionine Adenosyltransferase MAT I Control Tetramerization” (International Journal of Molecular Sciences, 2021)
Where “and” joins values, the source holds several entries; their conditions need not be identical. Equal entries are not always repeated.

B1: MATα1 E112L mutant (enzyme)
chain: not shown
notes: methionine adenosyltransferase catalytic subunit MATα1, rat; ORF of pSSRL-T7N with a point mutation; source: E. coli BL21(DE3), IPTG-induced, in soluble fraction
B2: MATα1 R85E mutant (enzyme)
chain: not shown
notes: as for B1
B3: MATα1 R85L mutant (enzyme)
chain: not shown
notes: as for B1
B4: MATα1 N106A mutant (enzyme)
chain: not shown
notes: as for B1
B5: MATα1 R85L–E112L double mutant (enzyme)
chain: not shown
notes: methionine adenosyltransferase catalytic subunit MATα1, rat; ORF of pSSRL-T7N with two point mutations; source: E. coli BL21(DE3), IPTG-induced, in soluble fraction
B6: MATα1 R85L–T63V double mutant (enzyme)
chain: not shown
notes: as for B5
B7: MATα1 T63V mutant (enzyme)
chain: not shown
notes: as for B1
B8: MATα1 Q81T mutant (enzyme)
chain: not shown
notes: as for B1
B9: wild-type MATα1 (SSRL), rat methionine adenosyltransferase catalytic subunit (enzyme)
chain: not shown
notes: methionine adenosyltransferase catalytic subunit MATα1, rat; the rat MATα1 ORF in plasmid pSSRL-T7N; Found as homo-dimers (MAT III) and homo-tetramers (MAT I) in an equilibrium that depends on protein concentration; also called MAT I (homo-tetramer); MAT III (homo-dimer); source: E. coli BL21(DE3), IPTG-induced, in soluble fraction

Target: the molecule itself
Assay: hydrophobic chromatography on phenyl Sepharose; soluble fractions of E. coli at 0.5 mg/mL (2 mL) on phenyl Sepharose in 50 mM Tris/HCl pH 8, 10 mM MgSO4, 1 mM EDTA; tetramers in the flowthrough, dimers eluted with 50% (v/v) DMSO; dot-blot with anti-MATα1 antiserum, dimer/tetramer ratio by densitometry
In the case of B1, the “stoichiometry N” value is reported as 4.
For B2, the “stoichiometry N” value was 2.
For B3, the “stoichiometry N” value was 2 and 4.
B4 was tested, and the “stoichiometry N” value was 4.
B5 was tested, and the “stoichiometry N” value was 2.
In the case of B6, the “stoichiometry N” value is reported as 2.
B7 was tested, and the “stoichiometry N” value was 2.
For B8, the “stoichiometry N” value was 4.

Target: the molecule itself
Assay: SEC; analytical gel filtration (AGFC): soluble fractions of E. coli at 0.5 mg/mL (100 µL) on Superose 12 10/30 HR in 50 mM Tris/HCl pH 8, 10 mM MgSO4, 1 mM EDTA, 150 mM KCl, 0.3 mL/min; fractions read by dot-blot with anti-MATα1 antiserum; homo-dimers and homo-tetramers separated by size
For B9, the “stoichiometry N” value was 2 and 4.
